Test results reported in patent publication US20220144895A1, “DE NOVO DESIGN OF TUNABLE PH-DRIVEN CONFORMATIONAL SWITCHES” (University of Washington, priority 2019, published 2022).
“Also recorded” adds a separate entry of the source.

Assays:
[1] = Size-exclusion chromatography (SEC); assay type: physicochemical; details: Superdex 75, Na2PO4-Citrate buffer pH 4
Experimental: Cells were lysed by microfluidization in the presence of 1 mM PMSF. Lysates were clarified by centrifugation at 24,000 ref at 4° C. for at least 30 minutes. Proteins were purified by Immobilized metal affinity chromatography (IMAC): supernatant was applied to Ni-NTA (Qiagen) columns pre-equilibrated in lysis buffer. The column was washed twice with 15 column volumes (CV) of wash buffer (25 mM Tris pH 8.0 at room temperature, 300 mM NaCl, 40 mM Imidazole), followed by 3-5 CV of high-salt wash buffer (25 mM Tris pH 8.0 at room temperature, 1 M NaCl, 40 mM Imidazole) then an additional 15 CV of wash buffer. Protein was eluted with 250 mM Imidazole, and buffer-exchanged into 25 mM Tris pH 8.0 and 150 mM NaCl without imidazole for cleavage of the N-terminal hexahistidine tag by purified hexahistidine-tagged TEV protease (with the exception of design pRO-1, which was cleaved using restriction grade thrombin (EMD Millipore 69671-3) at room temperature for 4 hours or overnight, using a 1:3000 dilution of enzyme into sample solution). A second Ni-NTA step was used to remove hexahistidine tag, uncleaved sample and the hexahistidine-tagged TEV protease, and the cleaved proteins were then […], 150 mM NaCl, and 2% glycerol.

[2] = Fluorescence dequenching liposome leakage (liposome disruption) assay; assay type: biochemical; details: for pH-dependent liposome disruption: SRB leakage
Method in brief: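 Extruded ~120–130 nm liposomes (DOPC or 3:1 DOPC:POPS, ± 25% cholesterol) loaded with 25 mM sulforhodamine B in Tris buffer pH 8.0 were acidified to target pH for 20 min at 24 °C. Leakage was read as SRB dequenching (ex/em 565/586) and normalised to pre-acidification and 1% Triton X-100 signals.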

U2-OS cells = experiment: Lysosomal pH with LysoSensor Yellow/Blue DND-160; assay type: cell-based; details: 5 μM protein, 1 hr, LysoSensor yellow/blue ratio
Experimental: The final concentration of 5 μM+36GFP fusion proteins was incubated with the LAMP1-HaloTag™ expressing U-2 OS cells on a pre-coated coverslip for 1 hr. Cells were fixed with 4% paraformaldehyde for 20 min at room temperature (RT) and quenched/rinsed with PBS supplemented with 30 mM glycine. Then, the coverslips were mounted on FluoroSave™ (Millipore). For pH measurement of the lysosome, LysoSensor™ Yellow/Blue DND-160 was incubated at 1 mg/mL overnight and washed twice prior to imaging (54). The final concentration of 5 μM protein was incubated with the LAMP1-HaloTag expressing U2-OS cells that were loaded with 1 mg/mL LysoSensor™ Yellow/Blue DND-160 for 1 hr. In separate chambers, LysoSensor™ Yellow/Blue DND-160 loaded cells were incubated with bafilomycin A1 (1 μM) and chloroquine (50 μM) for 1 hr as a control. For live cell confocal microscopy, Zeiss 880 was used to collect LysoSensor™ Yellow/Blue signal. LysoSensor™ Yellow/Blue was excited with a 405 nm laser, and its emission was collected into the two regions (Blue=410-499 nm Yellow=500-600 nm) using a Plan-Apochromat 63×/1.4 oil DIC objective. The ratio of the two channels was calculated using the home-built software in Matlab™.

[3] = 2.5 μM protein with respect to monomer

Molecule	state by SEC at pH 4 [1]	highest pH with liposome disruption [2, 3] [pH]	pH of maximal liposome disruption activity [2, 3] [pH]	pH-dependent liposome disruption [2, 3]	disruption of liposomes with more native-like lipid compositions ([2]; pH 5.0, DOPC, POPS, cholesterol mixtures)	change of lysosomal pH (U2-OS cells)	change of lysosomal pH (U2-OS cells; listed as pRO-256V)
pRO-2: designed pH-responsive homotrimer, SEQ ID NO: 1-2 (protein) chain 1: MGSHHHHHHGSGSENLYFQGSEYEIRKALEELKAATAELKRATASLRAITEELKKNPSEDALVEHNRAIVEHNAIIVEHNRIIAAVLELIVRAIK chain 2: SEYEIRKALEELKAATAELKRATASLRAITEELKKNPSEDALVEHNRAIVEHNAIIVEHNRIIAAVLELIVRAIK	soluble aggregate	≤ 6	~5	disrupts liposomes in a pH-dependent manner	caused pH-dependent disruption of liposomes with more native-like lipid compositions	–	–
pRO-2 I56V: pRO-2 mutant, SEQ ID NO: 17-18 (protein) chain 1: MGSHHHHHHGSGSENLYFQGSEYEIRKALEELKAATAELKRATASLRAITEELKKNPSEDALVEHNRAIVEHNAIVVEHNRIIAAVLELIVRAIK chain 2: GSEYEIRKALEELKAATAELKRATASLRAITEELKKNPSEDALVEHNRAIVEHNAIVVEHNRIIAAVLELIVRAIK	–	–	–	increased liposome permeabilization activity; also recorded: increased membrane permeabilization activity	–	larger changes in lysosomal pH than two drugs; also recorded: increases the lysosomal pH more than the small molecule drugs	raises the lysosomal pH
